The target in the assay is T1, Strep-tagged MinD (B. subtilis 168, UniProt Q01464 1-268).
T1 construct: MinD ATPase of B. subtilis 168, PCR fragment in a pQE-30 vector with the His6-tag replaced by the strep-tag; Pre-labelled with Strep-Tactin conjugated to horse radish peroxidase for the far-Western
T1 sequence (looked up): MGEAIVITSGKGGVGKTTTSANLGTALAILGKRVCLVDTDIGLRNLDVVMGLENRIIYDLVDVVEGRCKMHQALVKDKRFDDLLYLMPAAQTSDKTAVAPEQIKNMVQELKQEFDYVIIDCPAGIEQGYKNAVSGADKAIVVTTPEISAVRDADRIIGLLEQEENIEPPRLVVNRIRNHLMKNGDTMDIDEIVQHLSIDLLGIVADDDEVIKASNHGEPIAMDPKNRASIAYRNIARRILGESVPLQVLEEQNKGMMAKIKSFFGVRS
Description: far-Western; PtkA, MinC and TkmA separated by 12% SDS-PAGE, transferred to nitrocellulose and renatured; probed with Strep-tagged MinD labelled with Strep-Tactin-HRP in TBS-T (50 mM Tris pH 7.5, 150 mM NaCl, 0.05% Tween 20) with 1% BSA; AEC staining. As to conditions: both partners purified.

B1: MinC (purified) (natural protein, B. subtilis 168, UniProt Q01463 1-226, looked up)
chain: MKTKKQQYVTIKGTKNGLTLHLDDACSFDELLDGLQNMLSIEQYTDGKGQKISVHVKLGNRFLYKEQEEQLTELIASKKDLFVHSIDSEVITKKEAQQIREEAEIISVSKIVRSGQVLQVKGDLLLIGDVNPGGTVRAGGNIFVLGSLKGIAHAGFNGNNQAVIAASEMLPTQLRINHVLNRSPDHIQKGNEMECAYLDTDGNMVIERLQHLAHLRPDLTRLEGGM
notes: MinC of B. subtilis 168
In the case of B1, the binding result was “binds”.

These data come from article PMC4205851, “Protein-tyrosine phosphorylation interaction network in Bacillus subtilis reveals new substrates, kinase activators and kinase cross-talk” (Frontiers in Microbiology, 2014).
